These results are taken from patent US9567576B2, “Strain expressing FRSA and method for producing ethanol using same” (SOGANG UNIVERSITY RESEARCH FOUNDATION, priority 2012, dated 2017).

For orientation: Km means the concentration of substrate that gives half-maximal velocity. As usually defined, the kcat is the number of substrate molecules converted per active site and unit of time at saturation. A word on the kcat/Km: it is the turnover number divided by the Michaelis constant.

One series concerns CC(=O)C(=O)O. Kind of series: FrsA-catalysed pyruvate decarboxylation, ADH/NADH coupled acetaldehyde assay. The settings on record: other: wild-type FrsA, pH 7.0, 37° C., 1 nM FrsA. It is filed as biochemical, Vibrio vulnificus. As to the method:
FrsA enzymatic analysis was performed in 50 mM sodium phosphate solution (pH 7.0) containing 1 mM DTT and various concentrations of pyruvate. To measure the amount of acetaldehyde produced from pyruvate, 2 mM NADH and 3.7 U of […] was added to the FrsA reaction mixture (8). Cell lysates from wild-type E. coli and frsA mutants (9) were used in the range of 0.005 to 1 mg in amount. The acetaldehyde reaction was initiated by adding FrsA (1 nM) and incubated at 37° C. for 5 min and stopped by adding 50 mM potassium hydrogen phthalate buffer (pH3.0). The residual NADH in the reaction mixture was determined by measuring absorption at 340 nm. For CO2 measurement, FrsA enzyme reaction was performed in 50 mM Tris-HCl buffer (pH 7.0). The amount of carbon dioxide dissolved in the reaction solution was quantified by spectrophotometry after the reaction solution was treated with 10 mM calcium hydroxide (10). Concentrations of the pyruvate and acetaldehyde in the cell lysates and reaction mixtures were determined using Pyruvate Assay Lit (BioVision, USA) and Acetaldehyde UV-method kit (Roche, USA), respectively according to the manufacturer's instruction. To increase the sensitivity of the Acetaldehyde UV-method kit, the reaction mixture was additionally treated with dye (50 ml of 1.0% Tween 20 solution containing 40 mg iodonitrotetrazolium chloride and 10 mg phenazine methosulfate) followed by absorption measurement at 490 nm (11).
Values of Km and Kcat were calculated as follows. The concentration of reaction products were calculated in the mM unit from the absorption values which were obtained for a total of 1 min for each substrate concentration (S). Then initial reaction rate (Vo) for each concentration of the substrate was determined (here the unit is mM(product)/sec/mg(enzyme)). […] Keat value expressed in the unit of sec^−1 was calculated by changing the unit weight of the enzyme to the concentration in mM in the calculated Vmax (mM(product)/sec/mg(enzyme)).

Series [1] has as its target Vibrio vulnificus FrsA, wild type, SEQ ID NO: 2, + phospho-IIA^Glc (Vibrio vulnificus, UniProt Q8DF91). Kind of series: FrsA pyruvate decarboxylation in the presence of phospho-IIA^Glc. Format: biochemical. From the text: (§1) Genomic DNA from V. vulnificus(3) was used as template and as primers Crrexp-F (5′-[…]-3′(SEQ ID NO: 13); BamHI restriction site is underlined) and Crrexp-R (5′-[…]-′3(SEQ ID NO: 14); PstI restriction site is underlined) are used to amplify crr gene of 522-bp in size encoding full length IIA^Glc. The amplified products were then digested with BamHI and PstI and cloned into a vector pQE30 to obtain pQE-crr. Phosphorylated and non-phosphorylated recombinant IIA^Glc proteins were overexpressed in E. coli JM109 in a medium comprising 1.0 mM phophoenolpyruvate or 1.0% glucose, respectively. […]
(§2) FrsA enzymatic analysis was performed in 50 mM sodium phosphate solution (pH 7.0) containing 1 mM DTT and various concentrations of pyruvate. […] The residual NADH in the reaction mixture was determined by measuring absorption at 340 nm. […] The amount of carbon dioxide dissolved in the reaction solution was quantified by spectrophotometry after the reaction solution was treated with 10 mM calcium hydroxide (10). Concentrations of the pyruvate and acetaldehyde in the cell lysates and reaction mixtures were determined using Pyruvate Assay Lit (BioVision, USA) and Acetaldehyde UV-method kit (Roche, USA), respectively according to the manufacturer's instruction. […]
(§3) Values of Km and Kcat were calculated as follows. […]

Series [2] concerns the target Vibrio vulnificus FrsA, wild type, SEQ ID NO: 2, + dephospho-IIA^Glc (Vibrio vulnificus, UniProt Q8DF91). Kind of series: FrsA pyruvate decarboxylation in the presence of dephospho-IIA^Glc. It is filed as biochemical.
Excerpt: as §1, §2, §3

Chain of Vibrio vulnificus FrsA, wild type, SEQ ID NO: 2, + phospho-IIA^Glc (Q8DF91 whole entry): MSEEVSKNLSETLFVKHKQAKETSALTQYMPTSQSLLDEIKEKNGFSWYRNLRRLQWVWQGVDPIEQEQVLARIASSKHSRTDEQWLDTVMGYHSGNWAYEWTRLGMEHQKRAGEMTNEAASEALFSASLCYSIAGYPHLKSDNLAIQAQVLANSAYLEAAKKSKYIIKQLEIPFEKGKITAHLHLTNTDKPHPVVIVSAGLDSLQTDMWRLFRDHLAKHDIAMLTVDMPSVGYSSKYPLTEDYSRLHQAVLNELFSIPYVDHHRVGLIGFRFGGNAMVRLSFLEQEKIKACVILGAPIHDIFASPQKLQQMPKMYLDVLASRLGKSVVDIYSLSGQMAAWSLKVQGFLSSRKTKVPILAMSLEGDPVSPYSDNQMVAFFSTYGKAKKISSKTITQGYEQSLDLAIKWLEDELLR
Chain of Vibrio vulnificus FrsA, wild type, SEQ ID NO: 2, + phospho-IIA^Glc (A0A3Q0L1G8 entry or part of it, further chain): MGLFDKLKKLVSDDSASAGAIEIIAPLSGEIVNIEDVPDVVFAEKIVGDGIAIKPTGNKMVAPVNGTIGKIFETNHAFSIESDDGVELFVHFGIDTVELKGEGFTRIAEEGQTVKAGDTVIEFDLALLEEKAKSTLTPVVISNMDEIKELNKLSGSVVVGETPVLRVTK
Chain of Vibrio vulnificus FrsA, wild type, SEQ ID NO: 2, + dephospho-IIA^Glc (A0A3Q0L1G8 entry or part of it): as the sequence (A0A3Q0L1G8 entry or part of it, further chain) above
Chain of Vibrio vulnificus FrsA, wild type, SEQ ID NO: 2, + dephospho-IIA^Glc (Q8DF91 whole entry): as the sequence (Q8DF91 whole entry) above

In the case of “Vibrio vulnificus FrsA, wild type, SEQ ID NO: 2 (Vibrio vulnificus CMCP6)”, in the series on CC(=O)C(=O)O, the Km was 390 ± 20 µM, the kcat was 1372 ± 11 s⁻¹ and the kcat/Km stood at 3.52e+06 ± 183000 M⁻¹ s⁻¹.

For `CC(=O)C(=O)O` [pyruvate], the Km amounted to 390 ± 10 µM in series [1] and 390 ± 30 µM in series [2].
